Earlier results in paper PMC7287924.

Target: CD47 (Homo sapiens) (UniProt Q08722)
Sequence (Q08722 19-323): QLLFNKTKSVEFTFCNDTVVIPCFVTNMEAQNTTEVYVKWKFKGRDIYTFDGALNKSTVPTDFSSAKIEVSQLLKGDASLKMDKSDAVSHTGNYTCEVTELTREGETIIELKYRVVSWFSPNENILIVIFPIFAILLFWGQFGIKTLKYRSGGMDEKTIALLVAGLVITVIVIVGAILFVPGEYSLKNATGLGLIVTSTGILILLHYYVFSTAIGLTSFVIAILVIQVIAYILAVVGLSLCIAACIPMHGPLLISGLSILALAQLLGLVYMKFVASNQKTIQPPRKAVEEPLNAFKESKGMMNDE

Chain of TSP1 (P07996 19-1170): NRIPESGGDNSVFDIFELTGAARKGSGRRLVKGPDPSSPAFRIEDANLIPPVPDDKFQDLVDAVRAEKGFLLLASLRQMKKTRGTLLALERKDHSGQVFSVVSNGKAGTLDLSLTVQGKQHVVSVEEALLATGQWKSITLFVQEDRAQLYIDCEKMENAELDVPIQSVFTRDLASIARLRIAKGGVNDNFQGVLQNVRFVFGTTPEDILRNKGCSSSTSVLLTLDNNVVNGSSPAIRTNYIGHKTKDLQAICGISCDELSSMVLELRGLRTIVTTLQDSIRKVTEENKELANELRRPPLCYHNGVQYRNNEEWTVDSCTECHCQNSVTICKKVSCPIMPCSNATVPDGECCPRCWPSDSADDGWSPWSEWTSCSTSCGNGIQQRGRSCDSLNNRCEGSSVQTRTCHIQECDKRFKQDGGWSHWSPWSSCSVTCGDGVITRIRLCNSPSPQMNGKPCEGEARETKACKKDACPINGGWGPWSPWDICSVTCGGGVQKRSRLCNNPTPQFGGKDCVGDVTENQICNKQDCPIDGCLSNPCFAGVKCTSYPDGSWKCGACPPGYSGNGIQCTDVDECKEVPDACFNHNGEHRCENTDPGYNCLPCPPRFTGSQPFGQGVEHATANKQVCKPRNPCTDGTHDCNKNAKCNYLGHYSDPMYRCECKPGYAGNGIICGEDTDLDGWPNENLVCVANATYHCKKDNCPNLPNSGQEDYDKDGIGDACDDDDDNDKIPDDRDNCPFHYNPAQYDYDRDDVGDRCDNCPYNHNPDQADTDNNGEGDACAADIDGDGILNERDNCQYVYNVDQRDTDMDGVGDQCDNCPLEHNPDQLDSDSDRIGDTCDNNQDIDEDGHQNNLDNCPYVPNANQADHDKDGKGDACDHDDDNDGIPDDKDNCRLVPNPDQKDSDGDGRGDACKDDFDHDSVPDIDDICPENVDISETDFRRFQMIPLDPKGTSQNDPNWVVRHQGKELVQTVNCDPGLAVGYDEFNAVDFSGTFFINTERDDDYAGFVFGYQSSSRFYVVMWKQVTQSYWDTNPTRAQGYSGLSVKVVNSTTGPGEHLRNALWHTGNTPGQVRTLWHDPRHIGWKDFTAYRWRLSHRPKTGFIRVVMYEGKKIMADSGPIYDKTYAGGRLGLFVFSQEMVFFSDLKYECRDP

Kd: 0.01 nM
Substance: TSP1 (from UniProt P07996)
